{"source": "paper PMC11014249", "key": {"[1]": {"target": "RccR from Pseudomonas aeruginosa (P. aeruginosa)", "experiment": "SEC"}, "RccR H148A": {"target": "T1, RccR H148A (Pseudomonas aeruginosa, UniProt A0A071KWR3 1-293, H148A)", "T1 sequence": "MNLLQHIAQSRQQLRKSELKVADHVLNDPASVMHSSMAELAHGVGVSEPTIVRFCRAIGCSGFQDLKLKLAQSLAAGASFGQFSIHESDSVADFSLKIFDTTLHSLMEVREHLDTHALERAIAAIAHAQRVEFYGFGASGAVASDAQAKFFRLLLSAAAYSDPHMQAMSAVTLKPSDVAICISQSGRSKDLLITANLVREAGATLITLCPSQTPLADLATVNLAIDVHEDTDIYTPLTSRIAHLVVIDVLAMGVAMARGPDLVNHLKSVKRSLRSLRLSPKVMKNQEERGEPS", "experiment": "EMSA"}, "RccR K270A": {"target": "T2, RccR K270A (Pseudomonas aeruginosa, UniProt A0A071KWR3 1-293, K270A)", "T2 sequence": "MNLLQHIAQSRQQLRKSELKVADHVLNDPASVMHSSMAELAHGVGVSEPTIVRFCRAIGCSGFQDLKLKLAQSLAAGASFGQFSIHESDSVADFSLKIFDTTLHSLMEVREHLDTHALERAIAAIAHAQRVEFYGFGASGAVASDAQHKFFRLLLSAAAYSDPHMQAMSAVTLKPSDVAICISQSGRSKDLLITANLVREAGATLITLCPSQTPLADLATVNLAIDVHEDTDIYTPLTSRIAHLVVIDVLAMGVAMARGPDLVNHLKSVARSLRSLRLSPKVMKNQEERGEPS", "experiment": "EMSA"}, "RccR SSSS": {"target": "T3, RccR SSSS (Pseudomonas aeruginosa, UniProt A0A071KWR3 1-293, S139A;S183A;S185A;S188A)", "T3 sequence": "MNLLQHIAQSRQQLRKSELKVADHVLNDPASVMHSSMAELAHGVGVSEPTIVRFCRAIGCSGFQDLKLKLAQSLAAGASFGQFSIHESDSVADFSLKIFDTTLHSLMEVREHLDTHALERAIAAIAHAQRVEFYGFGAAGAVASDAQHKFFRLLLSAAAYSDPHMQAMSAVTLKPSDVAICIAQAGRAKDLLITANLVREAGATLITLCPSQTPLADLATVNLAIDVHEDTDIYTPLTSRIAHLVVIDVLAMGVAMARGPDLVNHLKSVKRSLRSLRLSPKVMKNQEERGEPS", "experiment": "EMSA"}, "RccR H164A": {"target": "T4, RccR H164A (Pseudomonas aeruginosa, UniProt A0A071KWR3 1-293, H164A)", "T4 sequence": "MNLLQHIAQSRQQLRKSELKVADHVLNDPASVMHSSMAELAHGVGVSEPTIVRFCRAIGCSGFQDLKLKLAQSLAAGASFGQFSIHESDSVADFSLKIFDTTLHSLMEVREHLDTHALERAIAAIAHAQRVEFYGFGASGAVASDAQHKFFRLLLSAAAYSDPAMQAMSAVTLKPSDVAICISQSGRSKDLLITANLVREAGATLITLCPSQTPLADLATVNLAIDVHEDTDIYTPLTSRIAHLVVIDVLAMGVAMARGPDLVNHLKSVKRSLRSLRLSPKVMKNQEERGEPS", "experiment": "EMSA"}, "RccR R152A": {"target": "T5, RccR R152A (Pseudomonas aeruginosa, UniProt A0A071KWR3 1-293, R152A)", "T5 sequence": "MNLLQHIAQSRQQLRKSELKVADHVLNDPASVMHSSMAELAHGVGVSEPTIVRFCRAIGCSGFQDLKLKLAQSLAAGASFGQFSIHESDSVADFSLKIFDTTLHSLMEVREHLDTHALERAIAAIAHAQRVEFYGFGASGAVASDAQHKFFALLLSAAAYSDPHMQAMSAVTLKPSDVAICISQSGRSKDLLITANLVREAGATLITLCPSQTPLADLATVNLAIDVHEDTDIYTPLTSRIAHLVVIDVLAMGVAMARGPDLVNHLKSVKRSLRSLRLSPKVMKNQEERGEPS", "experiment": "EMSA"}, "RccR T231A": {"target": "T6, RccR T231A (Pseudomonas aeruginosa, UniProt A0A071KWR3 1-293, T231A)", "T6 sequence": "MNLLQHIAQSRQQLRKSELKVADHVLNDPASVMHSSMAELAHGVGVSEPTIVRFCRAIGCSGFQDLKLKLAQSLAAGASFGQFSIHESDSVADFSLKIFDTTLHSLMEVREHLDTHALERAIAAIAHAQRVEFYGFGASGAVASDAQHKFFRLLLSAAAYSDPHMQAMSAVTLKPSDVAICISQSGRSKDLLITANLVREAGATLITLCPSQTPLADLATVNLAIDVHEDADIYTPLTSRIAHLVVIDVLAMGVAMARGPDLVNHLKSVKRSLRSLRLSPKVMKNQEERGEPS", "experiment": "EMSA"}, "RccR ΔSLR": {"target": "T7, RccR ΔSLR (Pseudomonas aeruginosa, UniProt A0A071KWR3 1-274+278-293, internal_change)", "T7 sequence": "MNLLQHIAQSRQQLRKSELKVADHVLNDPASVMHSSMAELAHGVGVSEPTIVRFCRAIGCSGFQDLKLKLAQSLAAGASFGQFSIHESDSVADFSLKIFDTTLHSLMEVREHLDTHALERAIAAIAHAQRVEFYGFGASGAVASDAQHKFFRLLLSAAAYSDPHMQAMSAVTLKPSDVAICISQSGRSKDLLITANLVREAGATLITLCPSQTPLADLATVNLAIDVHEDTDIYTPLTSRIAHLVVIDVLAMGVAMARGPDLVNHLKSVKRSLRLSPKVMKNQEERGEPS", "experiment": "EMSA"}, "RccR E200A [2]": {"target": "T8, RccR E200A (Pseudomonas aeruginosa, UniProt A0A071KWR3 1-293, E200A)", "T8 sequence": "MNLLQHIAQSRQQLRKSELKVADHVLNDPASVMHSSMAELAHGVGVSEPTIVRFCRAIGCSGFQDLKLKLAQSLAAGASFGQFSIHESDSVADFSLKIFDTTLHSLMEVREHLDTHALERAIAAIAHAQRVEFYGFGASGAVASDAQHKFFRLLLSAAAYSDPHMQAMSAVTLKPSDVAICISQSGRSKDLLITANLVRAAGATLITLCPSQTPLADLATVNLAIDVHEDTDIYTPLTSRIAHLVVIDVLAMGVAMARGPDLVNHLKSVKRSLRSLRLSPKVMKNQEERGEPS", "experiment": "EMSA"}, "RccR E200A [3]": {"target": "T8, RccR E200A", "experiment": "EMSA", "remark": "listed apart in the source"}, "RccR (PaRccR)": {"target": "T9, RccR (PaRccR) (Pseudomonas aeruginosa, UniProt A0A071KWR3 1-293)", "T9 sequence": "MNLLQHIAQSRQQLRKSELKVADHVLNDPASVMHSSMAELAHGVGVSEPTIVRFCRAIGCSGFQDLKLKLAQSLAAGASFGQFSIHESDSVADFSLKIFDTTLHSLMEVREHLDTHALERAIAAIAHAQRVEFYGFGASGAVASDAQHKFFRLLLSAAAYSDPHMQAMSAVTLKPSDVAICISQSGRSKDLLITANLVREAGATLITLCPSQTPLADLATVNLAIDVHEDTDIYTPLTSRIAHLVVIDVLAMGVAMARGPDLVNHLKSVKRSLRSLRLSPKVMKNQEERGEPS", "experiment": "EMSA"}}, "note": "Like-named read-outs stand apart in the source and are kept apart here.", "data": [{"molecule": "RccR from Pseudomonas aeruginosa (natural protein)", "values": [{"measurement": "stoichiometry N", "setting": "[1]", "value": 4}]}, {"molecule": "PaceE (dsDNA) DNA 1: ATCTGTAGTAAAACTACAAG DNA 2: CTTGTAGTTTTACTACAGAT", "values": [{"measurement": "binding result", "setting": "RccR H148A", "value": "binds"}, {"measurement": "binding result", "setting": "RccR K270A", "value": "binds"}, {"measurement": "binding result", "setting": "RccR SSSS", "value": "binds"}, {"measurement": "binding result", "setting": "RccR H164A", "value": "binds"}, {"measurement": "binding result", "setting": "RccR R152A", "value": "binds"}, {"measurement": "binding result", "setting": "RccR T231A", "value": "binds"}, {"measurement": "binding result", "setting": "RccR ΔSLR", "value": "binds"}, {"measurement": "binding result", "setting": "RccR E200A [2]", "value": "binds"}]}, {"molecule": "PaceA (dsDNA) DNA 1: TCGTGTAGTAGTCTTGAAAAAACACTACAAAA DNA 2: TTTTGTAGTGTTTTTTCAAGACTACTACACGA", "values": [{"measurement": "binding result", "setting": "RccR E200A [3]", "value": "binds"}]}, {"molecule": "Variant1 (dsDNA) DNA 1: ATCTGTAGTGGGACTACAAG DNA 2: CTTGTAGTCCCACTACAGAT", "values": [{"measurement": "binding result", "setting": "RccR (PaRccR)", "value": "binds"}]}]}
